Values quoted from earlier work, collected in article PMC7192543.

How the values were obtained:
OmpR (Escherichia coli) = OmpR (Escherichia coli) (UniProt P0AA16); test: fluorescence anisotropy
[1] = target: OmpR~P (Escherichia coli) (UniProt P0AA16)

EnvZ cytoplasmic domain (EnvZc) (from UniProt P0AEJ4)
Kd (OmpR (Escherichia coli)): 425 nM

EnvZ (from UniProt P0AEJ4)
Kd [1]: > 5000 nM
